In PMC2897852 (PLoS ONE, 2010):

B1: purified FtsZ (M. tuberculosis) as used in the solid-phase binding and polymerization assays (natural protein)
chain: MTPPHNYLAVIKVVGIGGGGVNAVNRMIEQGLKGVEFIAINTDAQALLMSDADVKLDVGRDSTRGLGAGADPEVGRKAAEDAKDEIEELLRGADMVFVTAGEGGGTGTGGAPVVASIARKLGALTVGVVTRPFSFEGKRRSNQAENGIAALRESCDTLIVIPNDRLLQMGDAAVSLMDAFRSADEVLLNGVQGITDLITTPGLINVDFADVKGIMSGAGTALMGIGSARGEGRSLKAAEIAINSPLLEASMEGAQGVLMSIAGGSDLGLFEINEAASLVQDAAHPDANIIFGTVIDDSLGDEVRVTVIAAGFDVSGPGRKPVMGETGGAHRIESAKAGKLTSTLFEPVDAVSVPLHTNGATLSIGGDDDDVDVPPFMRR
notes: also called FtsZTB
B2: His-ClpX (M. tuberculosis ClpX, pRD21) (natural protein)
chain: not shown
notes: also called his-clpXTB; recombinant His-ClpX fusion protein

Assays:
[1] = target: B2; assay: ELISA; conditions: both partners purified
[2] = target: the molecule itself; assay: SEC; purified ClpX on a Superdex 200 10/300 GL column; data not shown

| Binder | binding result [1] | stoichiometry N [2] |
| --- | --- | --- |
| B1 | binds | – |
| B2 | – | 6 |
